Article PMC9123187

Experiments:
[1] = molecular target: Cas7d, backbone subunit of type I-D Cascade (Synechocystis); test: cryo-EM structure; type I-D Cascade (co-expressed subunits with crRNA, purified as a complex) bound to a dsDNA target with GTT PAM, 1:2 Cascade:target, 30 °C 30 min; 2.9 Å
[2] = molecular target: Cas11d, small subunit of type I-D Cascade (Synechocystis); test: as above
[3] = molecular target: Type I-D Cascade WT (assay sample) (Synechocystis) (UniProt Q6ZEI7+Q6ZEI6+Q6ZEI5+Q6ZEI7); test: EMSA; details: EMSA: 10 mM HEPES-NaOH pH 7.5, 100 mM KCl, 5% glycerol, 1 mM DTT, 0.01% Triton X-100, 1 µg BSA, 0.1 µg poly(dI.dC) (dsDNA) or 0.26 µg E. coli tRNA (ssRNA) in …

Row | Substance | Kd [3] [nM] | further results
1 | Cas7d, backbone subunit of type I-D Cascade (natural protein) |  | stoichiometry N [1]: 7
2 | Cas11d, small subunit of type I-D Cascade (natural protein) |  | stoichiometry N [2]: 2
3 | GCAUGACGGAUCGAGGCAUUGAAAGCGACCGCCAGGGGCACAACAAUCAACGUGAUACUA / ACUGAAACGAUUGUUGUGCCCCUGGCGGUCGCUUUCAAUGCCU [PF3167 AAC-PFS ssRNA + crRNA] | 11 | 
4 | GCAUGACGGAUCGAGGCAUUGAAAGCGACCGCCAGGGGCACAACAAUCACGGUGAUACUA / ACUGAAACGAUUGUUGUGCCCCUGGCGGUCGCUUUCAAUGCCU [PF5591 ACG-PFS ssRNA + crRNA] | 11 | 
